Experimental data from patent US20170067045A1 (Bicycle, published 2017).
*1 amine or outer side, *2 acyl side, *3 side chain or, on linkers, in order; H or OH if unused. Bridges are numbered along the chain shown (N, C = ends). Where no end group is shown, it is not given here. tris(bromomethyl)mesitylene = scaffold as named in the source, Cc1c(C[*:1])c(C)c(C[*:3])c(C)c1C[*:2]; THME(IAc3) = trishydroxymethylethane trisiodoacetate, CC(COC(=O)C[*:1])(COC(=O)C[*:2])COC(=O)C[*:3]; TBMB = c1c(C[*:1])cc(C[*:3])cc1C[*:2]

Assays:
kallikrein = kallikrein (UniProt P03952 20-638, limits assumed); experiment: cell-based or functional assay
MDM2 (res 2-125) [1] = molecular target: T1, MDM2 (res 2-125) (UniProt Q00987 2-125); experiment: fluorescence anisotropy
T1 construct: range 2-125; Titrant in the fluorescence anisotropy experiments

MDM2 (res 2-125) [2] = molecular target: T1, MDM2 (res 2-125); experiment: fluorescence anisotropy titration (intrinsic Trp fluorescence), 23 C, PBS, 5 mM DTT
Description: (§1) Titration experiments were run on a Horiba Jobin Yvon fluorimeter equipped with the Hamilton Microlab titrator controlled by laboratory software. The λₑₓ and λₑₘ used were 295 nm and 350 nm, respectively. The slit widths for excitation and emission were 5 nm and 15 nm and the integration time 1 Os was used for each measurement. […] The experiments were performed at 23° C. in PBS, 5 mM DTT. […] Titration data were analyzed with a standard 1:1 binding model by using the quadratic solution to the equilibrium Kd=[A][B]/[AB]. […] The fitting equation contained an extra term to account for linear drift.

MDM2 (res 2-125) [3] = molecular target: T1, MDM2 (res 2-125); experiment: fluorescence anisotropy titration, excitation 295 nm, 23 C, PBS, 5 mM DTT
Description: as §1

MDM2 (res 2-125) [4] = molecular target: T1, MDM2 (res 2-125); experiment: fluorescence anisotropy titration, excitation 280 nm, 23 C, PBS, 5 mM DTT

T1 sequence (Q00987 2-125 limits assumed): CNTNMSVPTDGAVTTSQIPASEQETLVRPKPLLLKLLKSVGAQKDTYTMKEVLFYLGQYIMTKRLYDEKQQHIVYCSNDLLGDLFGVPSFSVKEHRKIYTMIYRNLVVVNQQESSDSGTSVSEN
Sequence of kallikrein (P03952 20-638 limits assumed): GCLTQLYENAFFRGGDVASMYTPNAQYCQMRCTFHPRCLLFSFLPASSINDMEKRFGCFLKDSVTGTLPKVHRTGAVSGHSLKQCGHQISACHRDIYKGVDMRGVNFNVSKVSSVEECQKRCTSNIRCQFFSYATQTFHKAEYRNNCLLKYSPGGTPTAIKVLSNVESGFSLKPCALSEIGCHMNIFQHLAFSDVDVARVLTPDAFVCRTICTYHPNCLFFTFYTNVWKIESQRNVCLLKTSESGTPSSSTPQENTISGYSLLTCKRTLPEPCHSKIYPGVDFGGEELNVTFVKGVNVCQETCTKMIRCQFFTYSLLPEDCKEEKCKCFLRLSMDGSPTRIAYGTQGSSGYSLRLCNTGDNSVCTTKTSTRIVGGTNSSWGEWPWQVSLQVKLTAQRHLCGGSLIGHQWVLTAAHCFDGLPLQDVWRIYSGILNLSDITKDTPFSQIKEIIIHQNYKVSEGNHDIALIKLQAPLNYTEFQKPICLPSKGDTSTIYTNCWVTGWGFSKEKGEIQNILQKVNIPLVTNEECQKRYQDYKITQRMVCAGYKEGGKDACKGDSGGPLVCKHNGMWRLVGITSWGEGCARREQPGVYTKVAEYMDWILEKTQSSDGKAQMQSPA

In the case of ACSDRFRNCPADEALCG (linker 2-9-16 via TBMB) [PK15-TBMB], the “IC50 of inhibition of kallikrein (Z-Phe-Arg-AMC substrate, fluorescence)” value (kallikrein) is reported as 13 nM.

B1: oxidized PK15-TBMB (sulphoxides, +3 oxygen atoms) (peptide)
peptide: ACSDRFRNCPADEALCG
modifications: linker 2-9-16 via TBMB; also: thioether links to TBMB oxidised to sulphoxides (stereoisomer mixture)
In the case of B1, the “IC50 of inhibition of kallikrein (Z-Phe-Arg-AMC substrate, fluorescence)” value (kallikrein) is reported as about 2400 nM.

With ACSDRFRNCPADEALCG (linker 2-9-16 via TBMB; also: thioether links to TBMB oxidised to sulphones) [oxidized PK15-TBMB (sulphone)] the “IC50 of inhibition of kallikrein (Z-Phe-Arg-AMC substrate, fluorescence)” value (kallikrein) was 1300 nM.

For ACSDRFRNCPADEALCG (linker 2-9-16 via tris(bromomethyl)mesitylene) [PK15 conjugated with tris(bromomethyl)mesitylene], the “IC50 of inhibition of kallikrein (Z-Phe-Arg-AMC substrate, fluorescence)” value (kallikrein) was 150 nM.

ACSDRFRNCPADEALCG (linker 2-9-16 via tris(bromoethyl)mesitylene) [PK15 conjugated with tris(bromoethyl)mesitylene] was tested, and the “IC50 of inhibition of kallikrein (Z-Phe-Arg-AMC substrate, fluorescence)” value (kallikrein) was about 400 nM.

ACSDRFRNMPADEALCG (both cysteines and the single methionine conjugated to TBMB) [PK15 with central cysteine altered to methionine, TBMB conjugate, first of two HPLC products] was tested, and the “IC50 of inhibition of kallikrein activity” value (kallikrein) was over 10000 nM.

For ACSDRFRNMPADEALCG (both cysteines and the single methionine conjugated to TBMB) [PK15 with central cysteine altered to methionine, TBMB conjugate, second of two HPLC products], the “IC50 of inhibition of kallikrein activity” value (kallikrein) was over 10000 nM.

B2: PEP48-3s1 conjugate (TBMB) (peptide)
peptide: SDDCVRFGWTCPTVMCG
modifications: linker 4-11-16 via TBMB
notes: PEP48 derivative with the second loop re-selected
With B2 the Kd (MDM2 (res 2-125) [1]) was 27 to 100 nM.

B3: PEP48-3s1 conjugated with THME(IAc3), HPLC peak / stereoisomer with affinity 640 nM (peptide)
peptide: SDDCVRFGWTCPTVMCG
modifications: linker 4-11-16 via THME(IAc3); also: one of two stereoisomers (HPLC peaks), not assigned
notes: One of two HPLC peaks of identical mass (expected stereoisomers); also called PEP48-3s1-THME(IAc3)
B3 gave a Kd (MDM2 (res 2-125) [1]) of 640 nM.

B4: PEP48-3s1 conjugated with THME(IAc3), HPLC peak / stereoisomer with affinity 1600 nM (peptide)
peptide: SDDCVRFGWTCPTVMCG
modifications: linker 4-11-16 via THME(IAc3); also: one of two stereoisomers (HPLC peaks), not assigned
notes: The other of two HPLC peaks of identical mass (expected stereoisomers); also called PEP48-3s1-THME(IAc3)
B4 was tested, and the Kd (MDM2 (res 2-125) [1]) was 1600 nM.

B5: PEP10 synthetic peptide conjugated with TBMB (peptide)
peptide: H-SCELWNPKCRLSPFECKG-OH
modifications: linker 2-9-16 via TBMB
notes: The anisotropy paragraph says only 'peptides 10, 48'; also called peptide 10
B5 showed a Kd (MDM2 (res 2-125) [2]) of 250 to 750 nM and a Kd (MDM2 (res 2-125) [3]) of 267 nM.

B6: PEP48 synthetic peptide conjugated with TBMB (peptide)
peptide: H-SCVRFGWTCDNSWHGCKG-OH
modifications: linker 2-9-16 via TBMB
notes: The anisotropy paragraph says only 'peptides 10, 48'; also called peptide 48
Work on B6 yielded a Kd (MDM2 (res 2-125) [2]) of 250 to 750 nM, a Kd (MDM2 (res 2-125) [4]) of 760 nM and a Kd (MDM2 (res 2-125) [3]) of 567 nM.
